Reference: article doi:10.1101/434902 (bioRxiv, 2018)
Residue numbers refer to the chain shown, from its start. Numbers in names are those of the source. Read-outs that look alike come from different tables or passages of the source.

B1: rabbit TRPV5 full length channel (1-730) (natural protein)
chain: MGACPPKAKGPWAQLQKLLISWPVGEQDWEQYRDRVNMLQQERIRDSPLLQAAKENDLRLLKILLLNQSCDFQQRGAVGETALHVAALYDNLEAATLLMEAAPELAKEPALCEPFVGQTALHIAVMNQNLNLVRALLARGASVSARATGAAFRRSPHNLIYYGEHPLSFAACVGSEEIVRLLIEHGADIRAQDSLGNTVLHILILQPNKTFACQMYNLLLSYDEHSDHLQSLELVPNHQGLTPFKLAGVEGNTVMFQHLMQKRKHVQWTCGPLTSTLYDLTEIDSWGEELSFLELVVSSKKREARQILEQTPVKELVSFKWKKYGRPYFCVLASLYILYMICFTTCCIYRPLKLRDDNRTDPRDITILQQKLLQEAYVTHQDNIRLVGELVTVTGAVIILLLEIPDIFRVGASRYFGQTILGGPFHVIIITYASLVLLTMVMRLTNMNGEVVPLSFALVLGWCSVMYFARGFQMLGPFTIMIQKMIFGDLMRFCWLMAVVILGFASAFHITFQTEDPNNLGEFSDYPTALFSTFELFLTIIDGPANYSVDLPFMYCITYAAFAIIATLLMLNLFIAMMGDTHWRVAQERDELWRAQVVATTVMLERKMPRFLWPRSGICGYEYGLGDRWFLRVENHHDQNPLRVLRYVEAFKCSDKEDGQEQLSEKRPSTVESGMLSRASVAFQTPSLSRTTSQSSNSHRGWEILRRNTLGHLNLGLDLGEGDGEEVYHF
B2: full length TRPV5 with a W583A point mutation (natural protein)
chain: B1 chain with W583A
B3: rabbit TRPV5 with a C-terminal truncation (1-660) (domain or fragment)
chain: MGACPPKAKGPWAQLQKLLISWPVGEQDWEQYRDRVNMLQQERIRDSPLLQAAKENDLRLLKILLLNQSCDFQQRGAVGETALHVAALYDNLEAATLLMEAAPELAKEPALCEPFVGQTALHIAVMNQNLNLVRALLARGASVSARATGAAFRRSPHNLIYYGEHPLSFAACVGSEEIVRLLIEHGADIRAQDSLGNTVLHILILQPNKTFACQMYNLLLSYDEHSDHLQSLELVPNHQGLTPFKLAGVEGNTVMFQHLMQKRKHVQWTCGPLTSTLYDLTEIDSWGEELSFLELVVSSKKREARQILEQTPVKELVSFKWKKYGRPYFCVLASLYILYMICFTTCCIYRPLKLRDDNRTDPRDITILQQKLLQEAYVTHQDNIRLVGELVTVTGAVIILLLEIPDIFRVGASRYFGQTILGGPFHVIIITYASLVLLTMVMRLTNMNGEVVPLSFALVLGWCSVMYFARGFQMLGPFTIMIQKMIFGDLMRFCWLMAVVILGFASAFHITFQTEDPNNLGEFSDYPTALFSTFELFLTIIDGPANYSVDLPFMYCITYAAFAIIATLLMLNLFIAMMGDTHWRVAQERDELWRAQVVATTVMLERKMPRFLWPRSGICGYEYGLGDRWFLRVENHHDQNPLRVLRYVEAFKCSDKEDGQ

Legend:
Experiment in all cases: cryo-EM structure
[1] = molecular target: the molecule itself
[2] = molecular target: bovine calmodulin (bovine, UniProt P62157 1-149)
[3] = molecular target: the molecule itself; remark: listed apart in the source

Row | Binder | stoichiometry N [1] | binding result [2] | stoichiometry N [3]
1 | B1 | 4 | binds | –
2 | B2 | – | – | 4
3 | B3 | – | – | 4
